According to US20220073643A1 (NANJING GENSCRIPT BIOTECH, published 2022):
Positions count from the first letter of the chain named.

B1: 252C10F6 (antibody, V domains shown)
VH: QVHLKQSGRGLVQPSQSLSITCTVSGFSLPNYGVHWVRQPPGKGLEWLGVIWSGGNTDYNTVFKARLSITKDNSKSQVFFKMNSLQADDTAIYYCARNLYGNYDYAMDYWGQGTSVTVSS
VL: DIVMTQSPATLSVTPGDRVSLSCRASQSISDYLHWYQQKSHESPRLLIKYASQSISGIPSRFSGSGSGSEFTLSINSVEPEDVGVYYCQNGHSFPFTFGSGTKLEIK
B2: 181C7B2 (antibody, V domains shown)
VH: QVQLKQSGPGLVQPSQSLSITCTVSGFSLTYYGVHWVRQSPGKGLEWLGVIWRGGNTDYNAAFISRLSINKDNSKSQVFFKMNSLQPNDTAIYYCARAAYYGNCFDYWGQGTTLTVSS
VL: DIVMTQSPSSLTVTAGEKVTMSCKSSQSLLNSGNQKNYLTWYQQKPGQPPKLLIYWASTRESGVPDRFTGSGSGTDFTLTISSVQAEDLAVYYCQNNYIYPLTFGAGTKLELK
B3: 186G12H3 (antibody, V domains shown)
VH: EVMLVESGGGLVKPGGSLKLSCAASRFTLSSYAMSWVRQTPEKRLEWVATISSGGSYTYYFDSVKGRFTISRDTAKNTLNLQMSSLRSEDTAMYYCARLYYGNALDYWGQGTSVTVSS
VL: B2 VL with M21V, K109T
B4: 262C7C10 (antibody, V domains shown)
VH: QAYLQQSGAELVRSGASVKMSCKASGYTFTNYNIHWVKQTPGQGLEWIGYIYPGNGGNYYNQKFKGKATLTADTSSITAYMQISSLTSEDSAVYFCARDYYGNSFAYWGQGTLVTVSA
VL: B2 VL with S22N, V91I, N97D, I99Y
B5: 256C3D3 (antibody, V domains shown)
VH: QAYLQQSGAELVRSGASVKMSCKASGYAFTSHNMHWVKQTPGQGLEWIGYISPGNGYTNYNQKFRGKATLTADTSSSTAYMQIGSLTSEDSAVYFCTRDYYGNSFAYWGQGTLVTVSA
VL: B2 VL with V13E, T14K, K18R, T20S, L30F, I99W, Y100F, L102F
B6: 257G7F7 (antibody, V domains shown)
VH: B5 VH with A28T, M34L, S52Y, Y57N, R65K, G84S
VL: B2 VL with V13E, T14K, K18R, T20S, L30F, I99W, Y100F, L102F
B7: 248G8E8 (antibody, V domains shown)
VH: QVQLKESGPGLVAPSQSLSITCTVSGFSLTTYGVSWVRQPPGKGLEWLGVIWGDGSTNYHSTLISRLRISKDKSKSQVFLKLNSLQTDDTATYYCAKAGRGNALDYWGQGTSVTVSS
VL: B2 VL with M4L, N97D, I99S, Y100F
B8: 259B4D4 (antibody, V domains shown)
VH: EIQLQQSGPELMKPGASVRISCKASGYSFTSYYMHWMKQSHVKSLEWIGYIDPFNGNTRYNQKFKDKATLTVDKSSTTAYMHLSSLTSEDSAVYFCASLRFFAYWGQGTLVTVSA
VL: B2 VL with K24N, T59S, S83T, N97D, I99S, Y100F, K109R
B9: 253E4F7 (antibody, V domains shown)
VH: EIQLQQSGPELMKPGASVKMSCKASGYSFTSYYIHWVKQSHGKSLEWIGYIDPFNGGTRYNQKFEGKATLTVDKSSTTAYMHLSSLTSEDSTVYYCASLRFLAYWGQGTLVTVSA
VL: B2 VL with S22T, L52V, Y55S, W56R, E61Q, N97D, I99S
B10: 254A8D5 (antibody, V domains shown)
VH: EVMLVESGGGLVKPGGSLKLSCAASGFTFSSYTVSWVRQTPEKRLEWVATSIVGSTYTYFPDSVKGRFTISRDFAKNTLFLQMSSLRSEDTAMYYCSRLGRGNAMDYWGQGTSVSVSS
VL: B2 VL with M21L, S22N, K24R, E87D, N97G, I99S, L102F, A106S, L112I
B11: 257F1E11 (antibody, V domains shown)
VH: B5 VH with A28T, M34I, G42R, S52Y, Y57G, R65K, G84S
VL: B2 VL with V13E, T14K, K18R, T20S, L30F, V91I, N97D, I99W, L102F
B12: 252F1B10 (antibody, V domains shown)
VH: B5 VH with A28T, S52Y, Y57G, R65K, G84N
VL: B2 VL with V13E, T14K, K18R, T20S, L30F, N97D, I99R, L102F
B13: 259C6F4 (antibody, V domains shown)
VH: B4 VH with T30S, N31S, Y32H, G57D, N58T, Y59N, I77S, A106V
VL: B2 VL with T5I, V13E, T14K, T20S, N97A, I99R, Y100F, L102F
B14: 250F4G1 (antibody, V domains shown)
VH: B5 VH with A28T, S52Y, Y57R, R65K, G84S
VL: B2 VL with V13E, T14K, A15V, K18R, T20S, L30F, N97D, I99W, L102F
B15: 259C6F7 (antibody, V domains shown)
VH: B4 VH with T30S, N31S, Y32H, G57D, N58T, Y59N, I77S, A106V
VL: B2 VL with T5I, V13E, T14K, T20S, N97A, I99R, Y100F, L102F
B16: 260G9E8 (antibody, V domains shown)
VH: B5 VH with Y3D, A28T, T30A, S52Y, Y57G, N59K, R65T, G84T, T97A
VL: B2 VL with V13E, T14K, T20S, S22R, E87D, N97D, I99M, Y100F, L102F
B17: 250F4G4 (antibody, V domains shown)
VH: B5 VH with A28T, S52Y, Y57R, R65K, G84S
VL: B2 VL with V13E, T14K, A15V, K18R, T20S, L30F, N97D, I99W, L102F
B18: 262H9H6 (antibody, V domains shown)
VH: B5 VH with A28T, G84S, A106T
VL: B2 VL with V13E, T14K, K18R, T20S, L30F, D76E, I99W, Y100F, L102F
B19: 194A2F7 (antibody, V domains shown)
VH: QIQLVQSGPELKKPGETVKISCKASGYTFTDYLIHWVKQAPGKGLKWMGWINTETGEPTYADDFKGRFALSLETSASTACLQINNLKNEDTATYFCARIYYGNSFDYWGQGTTLTVSS
VL: B2 VL with T12P, S22T, S28N, N37S, S62T, N97A, I99R, Y100F, L102F, K109R
B20: 257G7B9 (antibody, V domains shown)
VH: B5 VH with A28T, M34L, S52Y, Y57N, R65K, G84S
VL: B2 VL with V13E, T14K, K18R, T20S, L30F, I99W, Y100F, L102F
B21: 257B1G9 (antibody, V domains shown)
VH: B5 VH with A28T, S52Y, Y57G, R65K, G84S
VL: B2 VL with V13E, T14R, K18R, T20S, L30F, N97D, I99R, L102F
B22: 260F8A6 (antibody, V domains shown)
VH: B5 VH with K23R, A28T, S52Y, Y57N, N59Y, R65K, S77N, G84N, T97V, A106V
VL: B2 VL with I2V, V13E, T14K, A15T, T20S, T69I, V84L, A86T, I99M, L102F
B23: 258D11C4 (antibody, V domains shown)
VH: B5 VH with A28T, T30S, S52Y, Y57G, R65K, G84S
VL: B2 VL with V13E, T14K, K18R, T20S, L30F, E61Q, N97D, I99W, Y100F, L102F
B24: 194D3B2 (antibody, V domains shown)
VH: QAYLQQSGAELVRSGASVKMSCKASGYPFTSYNMHWVKQTPGQGLEWVGYIYPGNGGTNYNQKFRDKATLTADTSSSTAYMQISRLTSDDSAVYFCLTGRGFAYWGQGTLVTVSA
VL: B2 VL with T12I, A15P, K18R, W56R, N97D, I99S, A106I
B25: 252E7C9 (antibody, V domains shown)
VH: QTYLQQSGAELVRSGASVKMSCRTSGYSFTSHNMHWVKQTPGQGLEWIGYIYPGNGGSYYNQKFKGKAILTADTSSSTAYMQISSLTSEDSAVYFCTRDYYGNSFVYWGQGTLVTVSA
VL: DVVMTQSPSSLTEKTGEKVSMSCKSSQSLLNSGNQKNYLTWYQQKPGQPPKLLIYWASTRESGVPDRFTGSGSGTDFTLTISSLQTEDLAIYYCQNNFRYPFTFGAGTKLELK

molecular target: human Claudin18.2 (human); test: cell-based or functional assay

Binder | CDC % Relative activity [%] | CDC EC50 [µg/mL]
B1 | 3.42 | 53.6
B2 | 44 | 3.59
B3 | 114 | 1.39
B4 | 520 | 0.331
B5 | 165 | 1.11
B6 | 141 | 1.06
B7 | 114 | 1.61
B8 | 88.2 | 1.69
B9 | 174 | 1.06
B10 | 154 | 1.19
B11 | 174 | 0.855
B12 | 104 | 1.76
B13 | 125 | 1.19
B14 | 112 | 1.64
B15 | 117 | 1.27
B16 | 164 | 1.05
B17 | 126 | 1.45
B18 | 183 | 0.941
B19 | 51.7 | 3.06
B20 | 147 | 1.01
B21 | 487 | 0.305
B22 | 129 | 1.15
B23 | 142 | 1.05
B24 | 574 | 0.275
B25 | 154 | 1.19
